Reference: paper PMC8981990

Target: PKM2 (pyruvate kinase M2 isoform) (human (endogenous in U87)) (UniProt P14618)
Assay: cross-linking; cell lysates (100 ug) of U87, T98G or LN319 cells 10 h after release, glutaraldehyde 0.125%, 5 min, 37 C, Western blot for PKM2; vehicle or DASA-58 (40 uM, 3 h)

PKM2 (pyruvate kinase M2 isoform), P14618 1-531 (natural protein; other documents disagree on this pair), sequence (P14618 whole entry, canonical isoform): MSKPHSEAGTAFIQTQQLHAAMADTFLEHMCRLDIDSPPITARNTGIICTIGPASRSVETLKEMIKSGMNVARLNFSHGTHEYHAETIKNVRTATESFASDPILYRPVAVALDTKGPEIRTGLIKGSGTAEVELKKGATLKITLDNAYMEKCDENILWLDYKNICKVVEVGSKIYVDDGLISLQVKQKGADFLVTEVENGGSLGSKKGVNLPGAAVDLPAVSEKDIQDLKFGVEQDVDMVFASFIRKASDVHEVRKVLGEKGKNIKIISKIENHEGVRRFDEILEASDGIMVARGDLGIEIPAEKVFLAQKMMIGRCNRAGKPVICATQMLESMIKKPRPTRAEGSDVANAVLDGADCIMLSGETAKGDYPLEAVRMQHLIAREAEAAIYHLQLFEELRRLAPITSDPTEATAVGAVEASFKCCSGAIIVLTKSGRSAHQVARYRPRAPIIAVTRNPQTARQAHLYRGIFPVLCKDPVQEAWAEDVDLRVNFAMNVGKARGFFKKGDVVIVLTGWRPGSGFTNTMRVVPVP

- stoichiometry N: 2
Substance: PKM2 (pyruvate kinase M2 isoform), P14618 1-531 (natural protein; other documents disagree on this pair)
